Experimental data from patent US20130230868A1 (SIEMENS HEALTHCARE DIAGNOSTICS, published 2013).

What was measured:
[1] = molecular target: recombinant gain-of-function GPIbα protein fragment (amino acids 1-285 with amino acid substitutions G233V and M239V) (human) (UniProt P07359); assay: latex particle agglutination (turbidimetry, 570 nm); inhibition of VWF-GPIbα complex formation by 20 µg/ml AK2 in normal plasma pool
[2] = molecular target: recombinant gain-of-function GPIbα protein fragment (amino acids 1-285 with amino acid substitutions G233V and M239V) (human) (UniProt P07359); assay: latex particle agglutination (turbidimetry, 570 nm); inhibition of VWF-GPIbα complex formation by 10 µg/ml AK2 in normal plasma pool
[3] = molecular target: T1, von Willebrand factor (VWF) in plasma (human, UniProt P04275 764-2813); assay: latex particle agglutination, turbidimetry at 570 nm
T1 construct: mature; Native multimeric VWF present in plasma, not purified; The number of monomers per multimer varies; also called VWF protein
Procedure: The sample used was human citrated plasma from six different donors. 60 μl of sample were mixed with 20 μl of plasma containing VWF (91% of norm VWF, control plasma N, Siemens Healthcare Diagnostics Products GmbH, Marburg, Germany), 13 μl of a solution containing a recombinant gain-of-function GPIbα protein fragment (amino acids 1-285 with amino acid substitutions G233V and M239V; 8.4 μg/ml) and 70 μl of an NaCl buffer and incubated for two minutes. Subsequently, 40 μl of a latex particle reagent containing latex particles coated with anti-GPIbα antibodies were added to the assay mix.
Absorbance at 570 nm of the reaction mixture was measured turbidimetrically. Binding of VWF to GPIbα and binding of the GPIbα protein to the latex particles result in particle agglutination. This agglutination leads to an increase in absorbance, the maximum rate of which is determined (mU/min).

Molecule | Rate of agglutination [1] [mU/min] | Rate of agglutination [2] [mU/min] | binding result [3]
anti-GPIb antibody AK2 | 133 | 266 | –
recombinant gain-of-function GPIbα protein fragment (amino acids 1-285 with amino acid substitutions G233V and M239V) (receptor) HPICEVSKVASHLEVNCDKRNLTALPPDLPKDTTILHLSENLLYTFSLATLMPYTRLTQLNLDRCELTKLQVDGTLPVLGTLDLSHNQLQSLPLLGQTLPALTVLDVSFNRLTSLPLGALRGLGELQELYLKGNELKTLPPGLLTPTPKLEKLSLANNNLTELPAGLLNGLENLDTLLLQENSLYTIPKGFFGSHLLPFAFLHGNPWLCNCEILYFRRWLQDNAENVYVWKQVVDVKAVTSNVASVQCDNSDKFPVYKYPGKGCPTLGDEGDTDLYDYYPEEDTE | – | – | binds
